± gives the standard error. Variants at the floor of the assay were thinned out.
B1: glmS ribozyme (parent)
chain: AUAAAAGCGCCAGAACUACAGAAAUGUAGUUGACGAGGAGGAGGUUUAUCGAAUUUUCGGCGGAUGCCUCCAAA

Variants of: B1
Assay: self-cleavage kobs at 10000 uM GlcN6P; higher = faster cleavage; RNA array
Conditions: with glucosamine-6-phosphate
In short: (§1)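 kobs was derived by fitting per-tile medians to one- or two-exponential decays after normalising signals to baseline and to non-cleaving reference variants. Those signals came from barcoded ribozyme variants transcribed in situ by E. coli RNA polymerase on sequenced MiSeq chips, followed through a hybridised Cy3 probe at 37 °C and imaged over ~14 h. Glucosamine-6-phosphate (40 μM to 10 mM) in HEPES/KCl/Mg(OAc)2 buffer was flowed in. Weighted Michaelis–Menten fits across concentrations then gave kcat and KM.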

Variant	self-cleavage kobs at 10000 uM GlcN6P [s⁻¹]
G7C A39C C61A C67A	< 1e-05
C11A A12C U57G C67G	3.81e-05 ± 1.5e-05
A12U A15G U46G	0.00932 ± 0.0019
C8A G41U U46G G63A	< 1e-05
G29U U31G G32C C67A C68G	5.79e-05 ± 2.8e-05
A39C G44C G60U	< 1e-05
G40A G51C C67U	< 1e-05
C10U C16G C61A C71U	< 1e-05
G37A C50G	< 1e-05
A12G G51U C58G	< 1e-05
U30G G32A C71U	0.00359 ± 0.0005
C34A U47G A52U C70A	0.00102 ± 0.00046
A33G C58U C67U	< 1e-05
A42C C61U C68U	< 1e-05
U45A U55C U57C	0.00033 ± 7.3e-05
G29U G32A A39U	0.00055 ± 8.7e-05
G35C G37A C68G	4.58e-05 ± 2e-05
G7A G35A A36G	< 1e-05
G7A U55A G66A C67U U69G	0.000476 ± 0.00013
G35C C67U	0.00429
A6U C10G G62U C67G C71G	2.87e-05 ± 1.4e-05
C16U U30G G59C	< 1e-05
G29C G40A A42G	8.98e-05 ± 2.9e-05

Variant	self-cleavage kobs at 10000 uM GlcN6P [s⁻¹]
A36U G40A G63U	< 1e-05
G41U A53G C68U	4.96e-05 ± 1.3e-05
G9U A15U A42C U57G	< 1e-05
C8A A39G G41U G66U C67G	< 1e-05
U30G U45A C67A	0.00242 ± 0.00045
A6C G35C A52C G66U	< 1e-05
G13A A15U A53G G60U	< 1e-05
A12G C50U A52G U69G C71A	3.23e-05 ± 1.6e-05
A6G A14G A53C	7.6e-05 ± 2.3e-05
U30C G32C U47G C50G A53U A64G C68A C70A	0.000334 ± 8.3e-05
A15U G44U C61A	< 1e-05
G29C A52U A53C C68G	< 1e-05
C11G U31G G35U A36U U49C A52U	< 1e-05
A14C A52U A53C	< 1e-05
A33G G37U U45C G62U	< 1e-05
A14G G32A A52G	0.000409 ± 0.00011
G7A U31C C50U U65G	< 1e-05
G44C U45A U46G	3.99e-05 ± 2e-05
C10A G32A G60C G63A	< 1e-05
A42G C58U	9.52e-05 ± 1.4e-05
G43C C58G C71A	< 1e-05
G37A A42C	2.95e-05 ± 8.6e-06
U47C C67G C70U	8.24e-05 ± 1.8e-05

Variant	self-cleavage kobs at 10000 uM GlcN6P [s⁻¹]
G32A U57C G62A C67G	< 1e-05
A15U C50U C58G	< 1e-05
A33G C34U C50G C67U	0.000194 ± 3.6e-05
A14U A42G C58A	0.000409 ± 0.00014
U17A A18C C19A A20G A52G U57G C67A	8.22e-05 ± 1.7e-05
A33C G38U G41U G43A U56A	< 1e-05
A15G G43A C58A	< 1e-05
C10G C71A	< 1e-05
C11A U30G C67A	9.25e-05 ± 1.7e-05
A36C G38U U47C G51C	< 1e-05
G40A U69C	5.59e-05 ± 1.9e-05
A39C G51C G59C	< 1e-05
C11U U31C U56C	9.92e-05 ± 2.1e-05
G7A C10G C19A U47A G51A	< 1e-05
U46G G51U C67A	< 1e-05
C34U G37U U46C U47A G62A	< 1e-05
A12C G29C G43C	< 1e-05
A12U U31C C67G	0.000267 ± 5.5e-05
C10G C16G A53G C68U	< 1e-05
A6G C8U U30A G40C A64C U65A	< 1e-05
A39U C67G C71A	7.84e-05 ± 1.5e-05
G13U C61G C68G	< 1e-05

Variants of: B1
Assay: self-cleavage kobs at 2500 uM GlcN6P; higher = faster cleavage; RNA array
Conditions: with glucosamine-6-phosphate
In short: as §1

Variant	self-cleavage kobs at 2500 uM GlcN6P [s⁻¹]
U46G C61A C70G	< 1e-05
G43U U47G G59C	< 1e-05
A52U C68U C70U	5.68e-05 ± 1.7e-05
U45A U55C U57C	8.32e-05 ± 1.8e-05
U45G U56A C71U	0.000974 ± 0.00025
G59U G62C C71A	< 1e-05
G44C A53U U54G	7.38e-05 ± 2e-05
A48G C50G A52U	< 1e-05
U45A U47G G51U A64G U65G	< 1e-05
A52C A53G U57G C70G	5.76e-05 ± 2.3e-05
U47C C67G C70U	0.000129 ± 4.1e-05
G44U U46G C67A	0.00376 ± 0.00093
G63C A64C C67A	< 1e-05
U46G G51U C67A	< 1e-05
U46G U54C C58G U65A	< 1e-05
U56A U57C C67A	4.71e-05 ± 2e-05
U57A G59U G66U	< 1e-05

Source: the supplement of paper PMC7125110
